B1: WW domain-containing transcription regulator protein 1, residues 116 to 162; numbered along this chain, Q9GZV5 (parent)
chain: QSYDVTDELPLPPGWEMTFTATGQRYFLNHIEKITTWQDPRKAMNQP

Variants of: B1
Assay: abundance fitness (aPCA) (normalised: wild type 0, dead -1); higher = more abundant; growth selection in yeast, the domain comes from the species named
Details: Homo sapiens

Abundance fitness of substitutions, site by site:
T35: N -0.57 | G -0.493 | F -0.566 | Y -0.413 | M -0.47
E32: P -0.805 | Q 0.033 | S -0.02 | G -0.091 | D -0.072 | V -0.19 | F 0.122 | K 0.006 | M 0.072 | Y 0.054 | W 0.094 | L 0.201 | A 0.028 | C -0.053 | I -0.055 | H -0.05 | T -0.017 | R 0.004
K33: H -0.2 | T -0.483 | P -0.942 | F -0.683 | G 0.122 | D -0.517 | N -0.041 | Y -0.733 | Q -0.139 | S -0.177 | I -1.01 | R -0.063 | C -0.198 | A -0.209 | L -0.558 | M -0.284 | V -0.905
H30: Q -0.076 | C -0.333 | D -0.247 | W -0.378 | N -0.088 | K -0.05 | Y -0.338 | I -0.412 | L -0.344 | M -0.259 | G -0.3 | A -0.152 | S -0.091 | T -0.106 | R -0.075 | V -0.226 | E -0.167 | F -0.484 | P -0.218
L28: G -0.583 | R -0.112 | I 0.044 | K 0.128 | A -0.143 | D -0.909 | S -0.205 | N -0.446 | W -0.426 | V 0.035 | F -0.335 | P -0.697 | T -0.096 | Y -0.268 | M 0.055 | H -0.55 | C -0.16
T36: N -0.754 | G -0.775 | C -0.305 | A -0.377 | F -1.05 | L -1.02 | H -1.03 | D -0.816 | E -0.722 | Y -0.992 | V -0.736 | R -0.858 | M -0.532 | I -0.831 | K -0.954 | S -0.224 | W -0.986 | Q -0.376
Q24: V -0.12 | L -0.364 | W -0.82 | Y -0.424 | C -0.305 | S -0.174 | I -0.226 | E 0.185 | K -0.14 | R -0.222 | N -0.164 | G -0.286 | H -0.552 | T -0.178 | A -0.124 | F -0.623 | D 0.017 | P -0.846 | M -0.489
W37: A -0.376 | C -0.52 | E -0.244 | H -0.402 | F -0.047 | D -0.481
F27: R -0.761 | N -0.859 | W -0.13 | I -0.935 | Q -0.977 | H -0.707 | C -0.825 | P -0.946 | Y -0.027 | G -0.613 | S -0.579 | L -0.841 | T -0.793 | M -0.904 | K -0.818 | A -0.777
A21: P -0.088 | T -0.039 | S -0.014 | R -0.109 | Y -0.299 | N 0.019 | Q -0.272 | I -0.1 | E -0.002 | D -0.029 | H -0.108 | C -0.167 | W -0.448 | K -0.019 | M -0.079 | G -0.072
Y26: F -0.265 | N -0.412 | S -0.54 | D -0.739 | T -0.409 | A -0.397 | E -0.586 | H -0.387 | K -0.506 | I -0.409 | V -0.322 | G -0.661 | W -0.587 | R -0.487 | C -0.566 | P -0.814
